Experimental findings from US7807783 (REGENTS OF THE UNIVERSITY OF MICHIGAN, dated 2010) are described below.

First the molecules themselves.
B4: GAL4 activation domain-FADD fusion protein (GAL4ad-FADD) (other, not shown: large carriers)
chain: MDPFLVLLHSVSSSLSSSELTELKFLCLGRVGKRKLERVQSGLDLFSMLLEQNDLEPGHTELLRELLASLRRHDLLRRVDDFEAGAAAGAAPGEEDLCAAFNVICDNVGKDWRRLARQLKVSDTKIDSIEDRYPRNLTERVRESLRIWKNTEKENATVAHLVGALRSCQMNLVADLVQEVQQARDLQNRSGAMSPMSWNSDASTSEAS
B8: GAL4 DNA binding domain fusion of the cytoplasmic domain of CD28 (receptor, UniProt P04386 1-147, looked up)
chain: MKLLSSIEQACDICRLKKLKCSKEKPKCAKCLKNNWECRYSPKTKRSPLTRAHLTEVESRLERLEQLFLLIFPREDLDMILKMDSLQDIKALLTGLFVQDNVNKDAVTDRLASVETDMPLTLRQHRISATSSSEESSNKGQRQLTVSRSKRSRLLHSDYMNMTPRRPGPTRKHYQPYAPPRDFAAYRS
notes: also called CD28 (yeast bait)

Assay [1] concerns the target T1, cytoplasmic domain of Fas (UniProt P25445 191-335, limits assumed).
T1 construct: domain: cytoplasmic domain
T1 sequence (looked up): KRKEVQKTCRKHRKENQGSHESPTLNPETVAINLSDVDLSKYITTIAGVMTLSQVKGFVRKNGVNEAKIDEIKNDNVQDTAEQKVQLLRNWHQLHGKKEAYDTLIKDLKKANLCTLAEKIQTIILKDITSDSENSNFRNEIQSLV
The experiment in a line: not described.

Assay [2] addresses T2, GST (UniProt P08515 1-218 = GST).
T2 construct: Control protein on glutathione beads
The experiment in a line: GST pull-down from lysates of transfected 293T cells. Here is the method:
(§1) Detergent lysates were prepared and incubated with various GST fusion proteins immobilized on glutathione-Sepharose beads. The samples were analyzed by SDS-PAGE and autoradiography (upper panel). The respective GST fusion proteins are shown as in FIG. 4B (middle panel).

Assay [3] deals with T3, GST-Fas (GST fusion protein containing the cytoplasmic domain of Fas) (UniProt P25445 191-335).
T3 construct: domain: cytoplasmic domain; Made in E. coli BL21(DE3)pLysS and immobilized on glutathione beads; not shown: glutathione S-transferase of vector pGSTag
T3 sequence (looked up): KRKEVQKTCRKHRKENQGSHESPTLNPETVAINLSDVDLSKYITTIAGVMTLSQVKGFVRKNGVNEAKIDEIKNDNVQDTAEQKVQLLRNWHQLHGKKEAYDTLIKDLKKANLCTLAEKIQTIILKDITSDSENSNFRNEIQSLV
The assay is described as above. Here is the method:
as §1

Assay [4] has as its target T4, GAL4 DNA binding domain fusion of the cytoplasmic domain of CD40 (UniProt P04386 1-147; P25942 216-277, limits assumed).
T4 construct: also called CD40 (yeast bait)
The experiment in a line: yeast two-hybrid, β-galactosidase filter assay. From the text:
(§2) The following yeast two-hybrid system was used and constructed as follows. The cytoplasmic domains of Fas, Fas-FD8, TNRF-1, Δ-TNFR-1, CD40, and CD28 were obtained by PCR and cloned in-frame, as confirmed by sequencing, into the GAL4 DNA binding domain (GAL4bd) vector pAS1CYH2. Full-length A20 and B94 were similarly cloned into the bait vector. GAL4bd-Fas was cotransformed with a prey plasmid containing a human B-cell cDNA expression library fused to the GAL4 activation domain (GAL4ad) in the pACT plasmid. A more detailed account of the plasmids used in the procedure for the yeast two-hybrid system can be found in Hu et al. (1994) *J. Biol. Chem.* 269:30069-30072.
(§3) The yeast two-hybrid system was used to screen for proteins that interact with the cytoplasmic domain of Fas. An expression vector was constructed by fusing the GAL4 DNA-binding domain to the cytoplasmic tail of the human Fas antigen (GAL4bd-Fas). This bait plasmid was cotransformed in yeast with a prey plasmid containing a human B-cell cDNA expression library fused to the GAL4-activation domain. Seventeen positive clones were obtained from 2 ×10^6 transformants screened. To determine the specificity of interaction, plasmids containing the activation domain fusion proteins were recovered from the putative positive clones and cotransformed with GAL4bd-Fas and control heterologous baits.

In assay [5] the target is T5, GAL4 DNA binding domain fusion of full-length B94 (UniProt P04386 1-147; Q03169 1-654).
T5 construct: also called B94 (yeast bait)
The experiment in a line: yeast two-hybrid, β-galactosidase filter assay.
Text: as §2, §3

The target in assay [6] is T6, GAL4 DNA binding domain fusion of full-length A20 (UniProt P04386 1-147; P21580 1-790).
T6 construct: also called A20 (yeast bait)
The experiment in a line: yeast two-hybrid, β-galactosidase filter assay.
Text: as §2, §3

Assay [7] addresses T4, GAL4 DNA binding domain fusion of the …. The experiment in a line: yeast two-hybrid.
Text: as §2, §3

The target in assay [8] is T5, GAL4 DNA binding domain fusion of …. In words: yeast two-hybrid.
Text: as §2, §3

Assay [9] addresses T6, GAL4 DNA binding domain fusion of …. The experiment in a line: yeast two-hybrid.
Text: as §2, §3

The target in assay [10] is B8. In words: yeast two-hybrid.
Text: as §2, §3

The target of assay [11] is GAL4 DNA-binding domain fused to the cytoplasmic tail of the human Fas antigen (GAL4bd-Fas) (human, UniProt P04386 1-147; P25445 191-335, limits assumed). The experiment in a line: yeast two-hybrid.
Text: as §2, §3

Assay [12] addresses T2, GST. In words: GST pull-down of 35S-labeled in vitro translated FADD, SDS-PAGE and autoradiography.
Assay [13] addresses B4. In words: yeast two-hybrid, β-galactosidase filter assay.
Text: as §2, §3

T2 sequence (P08515 whole entry): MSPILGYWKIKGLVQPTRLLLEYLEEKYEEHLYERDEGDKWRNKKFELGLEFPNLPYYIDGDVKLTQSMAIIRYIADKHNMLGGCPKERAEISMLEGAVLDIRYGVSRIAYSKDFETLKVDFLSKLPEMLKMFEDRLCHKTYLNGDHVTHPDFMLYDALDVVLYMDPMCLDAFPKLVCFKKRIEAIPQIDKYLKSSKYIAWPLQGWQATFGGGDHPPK

B1: N-FADD (other)
chain: DTYRYIMDPFLVLLHSVSSSLSSSELTELKFLCLGRVGKRKLERVQSGLDLFSMLLEQNDLEPGHTELLRELLASLRRHDLLRRVDDFEAGAAAGAAPGEEDLCAAFNVICDNVGKDWRRLAR
notes: the AU1-tagged form is the one made for the cell death assays; also called AU1-N-FADD
For the molecule B1, the binding result in assay [1] is “no binding”.

B2: AU1-epitope tagged FADD (AU1-FADD) (other)
chain: DTYRYIMDPFLVLLHSVSSSLSSSELTELKFLCLGRVGKRKLERVQSGLDLFSMLLEQNDLEPGHTELLRELLASLRRHDLLRRVDDFEAGAAAGAAPGEEDLCAAFNVICDNVGKDWRRLARQLKVSDTKIDSIEDRYPRNLTERVRESLRIWKNTEKENATVAHLVGALRSCQMNLVADLVQEVQQARDLQNRSGAMSPMSWNSDASTSEAS
modifications: 35S-methionine/cysteine metabolic label
notes: the tag is placed N-terminal by the name only
As for B2, the binding result in the assay with GST [2] is “no binding”.

B3: AU1-FADDmt (other)
chain: DTYRYIMDPFLVLLHSVSSSLSSSELTELKFLCLGRVGKRKLERVQSGLDLFSMLLEQNDLEPGHTELLRELLASLRRHDLLRRVDDFEAGAAAGAAPGEEDLCAAFNVICDNVGKDWRRLARQLKNSDTKIDSIEDRYPRNLTERVRESLRIWKNTEKENATVAHLVGALRSCQMNLVADLVQEVQQARDLQNRSGAMSPMSWNSDASTSEAS
modifications: 35S-methionine/cysteine metabolic label
notes: also called point mutant of FADD
B3: the binding result (in assay [3]; in the assay with GST [2]) was “no binding” each time.

Regarding B4, the binding result in assay [4], in assay [5] and in assay [6] was “no binding” each time.

B5: clone 8 (GAL4 activation domain fusion isolated in the yeast two-hybrid screen) (other, not shown: large carriers)
chain: SGLDLFSMLLEQNDLEPGHTELLRELLASLRRHDLLRRVDDFEAGAAAGAAPGEEDLCAAFNVICDNVGKDWRRLARQLKVSDTKIDSIEDRYPRNLTERVRESLRIWKNTEKENATVAHLVGALRSCQMNLVADLVQEVQQARDLQNRSGAMSPMSWNSDASTSEAS
Regarding B5, the binding result in assay [7] is on record as “no binding”; in assay [8], “no binding”; in assay [9], “no binding”; in assay [10], “no binding”; in assay [11], “binds”.

B6: clone 15 (GAL4 activation domain fusion isolated in the yeast two-hybrid screen) (other, not shown: large carriers)
chain: KFLCLGRVGKRKLERVQSGLDLFSMLLEQNDLEPGHTELLRELLASLRRHDLLRRVDDFEAGAAAGAAPGEEDLCAAFNVICDNVGKDWRRLARQLKVSDTKIDSIEDRYPRNLTERVRESLRIWKNTEKENATVAHLVGALRSCQMNLVADLVQEVQQARDLQNRSGAMSPMSWNSDASTSEAS
notes: also called GAL4ad-FADD (clone 15)
Consider B6, for which the binding result in assay [7], in assay [8], in assay [9] and in assay [10] was “no binding” throughout.

B7: HA-epitope tagged FADD (HA-FADD) (other)
chain: YPYDVPDYAMDPFLVLLHSVSSSLSSSELTELKFLCLGRVGKRKLERVQSGLDLFSMLLEQNDLEPGHTELLRELLASLRRHDLLRRVDDFEAGAAAGAAPGEEDLCAAFNVICDNVGKDWRRLARQLKVSDTKIDSIEDRYPRNLTERVRESLRIWKNTEKENATVAHLVGALRSCQMNLVADLVQEVQQARDLQNRSGAMSPMSWNSDASTSEAS
modifications: 35S-methionine/cysteine metabolic or in vitro translation label
notes: also called in vitro translated FADD; 35S-labeled FADD
Consider B7, for which the binding result with GST [12] is given as “no binding”.

Turning to B8, the binding result in assay [13] is on record as “no binding”.
